T1: recombinant human FcγRIIb (human, UniProt P31994 46-217, limits assumed)
T1 construct: Histidine-tagged recombinant receptor captured on anti-Penta-His biosensors; not shown: histidine tag
T1 sequence (looked up): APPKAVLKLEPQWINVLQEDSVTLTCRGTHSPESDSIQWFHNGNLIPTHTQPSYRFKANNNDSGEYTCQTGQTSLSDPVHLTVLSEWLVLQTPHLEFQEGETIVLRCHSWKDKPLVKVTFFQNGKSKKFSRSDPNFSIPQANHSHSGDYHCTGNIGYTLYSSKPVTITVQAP


Key:
[1] = molecular target: human KIT (wild-type KIT) (human, UniProt P10721 26-976); test: cell-based or functional assay
[2] = molecular target: T1, recombinant human FcγRIIb; test: Bio-layer interferometry (Octet QKe); His-tagged FcγRIIb on anti-Penta-His biosensors, serial dilutions of antibody
Description: Binding to recombinant human Fc receptors was measured by bio-layer interferometry using an Octet® QKe instrument. […] Curve fitting was performed using the instrument's analysis software. Binding to FcRn was performed with association and dissociation steps at pH 6.0 as well as pH 7.2.

Sequence of human KIT (wild-type KIT) (P10721 other isoform, or with tags, fused parts or gaps limits assumed): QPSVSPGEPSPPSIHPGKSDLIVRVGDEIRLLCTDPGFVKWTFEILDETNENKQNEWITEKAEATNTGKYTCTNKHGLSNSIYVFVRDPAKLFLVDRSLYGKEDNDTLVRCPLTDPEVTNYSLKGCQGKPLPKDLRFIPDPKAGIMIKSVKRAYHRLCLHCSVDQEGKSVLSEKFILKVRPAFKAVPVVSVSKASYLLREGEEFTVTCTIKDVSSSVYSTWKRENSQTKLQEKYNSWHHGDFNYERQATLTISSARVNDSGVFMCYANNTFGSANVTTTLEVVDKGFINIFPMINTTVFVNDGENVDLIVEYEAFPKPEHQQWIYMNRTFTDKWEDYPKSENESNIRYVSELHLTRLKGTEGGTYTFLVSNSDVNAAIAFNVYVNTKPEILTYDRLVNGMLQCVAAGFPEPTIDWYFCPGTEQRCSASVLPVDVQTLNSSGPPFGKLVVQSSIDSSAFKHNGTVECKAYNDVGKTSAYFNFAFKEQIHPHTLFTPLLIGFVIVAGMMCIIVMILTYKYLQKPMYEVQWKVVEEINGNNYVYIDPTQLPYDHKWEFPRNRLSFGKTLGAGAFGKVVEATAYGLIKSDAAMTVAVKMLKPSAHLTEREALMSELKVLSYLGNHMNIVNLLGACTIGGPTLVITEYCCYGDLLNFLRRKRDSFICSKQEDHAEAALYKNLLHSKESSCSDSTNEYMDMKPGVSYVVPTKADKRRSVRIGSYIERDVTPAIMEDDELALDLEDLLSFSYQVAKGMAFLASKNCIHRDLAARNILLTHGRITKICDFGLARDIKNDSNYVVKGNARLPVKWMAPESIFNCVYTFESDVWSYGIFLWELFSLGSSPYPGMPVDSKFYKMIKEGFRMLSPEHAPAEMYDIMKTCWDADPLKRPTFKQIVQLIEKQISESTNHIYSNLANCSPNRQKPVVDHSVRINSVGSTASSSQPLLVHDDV

Binder | IC50 of inhibition of SCF-dependent M-07e cell proliferation [1] [nM] | binding result [2]
mAb1 (antibody, human IgG1, kappa) heavy: QVQLVQSGAEVKKPGASVKLSCKASGYTFTDYYINWVRQAPGKGLEWIARIYPGSGNTYYNEKFKGRATLTADKSTSTAYMQLSSLRSEDTAVYFCARGVYYFDYWGQGTTVTVSSASTKGPSVFPLAPSSKSTSGGTAALGCLVKDYFPEPVTVSWNSGALTSGVHTFPAVLQSSGLYSLSSVVTVPSSSLGTQTYICNVNHKPSNTKVDKKVEPKSCDKTHTCPPCPAPEAQGGPSVFLFPPKPKDTLYITREPEVTCVVVDVSHEDPEVKFNWYVDGVEVHNAKTKPREEQYNSTYRVVSVLTVLHQDWLNGKEYKCQVSNKALPAPIEKTISKAKGQPREPQVYTLPPSRDELTKNQVSLTCLVKGFYPSDIAVEWESNGQPENNYKTTPPVLDSDGSFFLYSKLTVDKSRWQQGNVFSCSVMHEALHNHYTQKSLSLSPG light: DIVMTQSPSSLSASVGDRVTITCKASQNVRTNVAWYQQKPGKAPKALIYSASYRYSGVPDRFTGSGSGTDFTLTISSLQPEDFADYFCQQYNSYPRTFGGGTKVEIKRTVAAPSVFIFPPSDEQLKSGTASVVCLLNNFYPREAKVQWKVDNALQSGNSQESVTEQDSKDSTYSLSSTLTLSKADYEKHKVYACEVTHQGLSSPVTKSFNRGEC | 1.11 | 
mAbc (antibody, It only says that mAbc has the variable regions of mAb1 and a wild-type (unmutated) human IgG1 Fc; also called corresponding antibody with a wild-type (unmutated) IgG1 Fc domain; copies: 2 + 2) heavy: not shown light: DIVMTQSPSSLSASVGDRVTITCKASQNVRTNVAWYQQKPGKAPKALIYSASYRYSGVPDRFTGSGSGTDFTLTISSLQPEDFADYFCQQYNSYPRTFGGGTKVEIKRTVAAPSVFIFPPSDEQLKSGTASVVCLLNNFYPREAKVQWKVDNALQSGNSQESVTEQDSKDSTYSLSSTLTLSKADYEKHKVYACEVTHQGLSSPVTKSFNRGEC | 1.12 | no binding (tested: 500 nM)
